{"source": "patent US20180298070A1", "about": "“PEPTIDE COMPOUND” (Takeda Pharmaceutical Company Limited, published 2018)", "binders": {"B1": {"name": "Compound 7 (peptide)", "peptide": "Y[Aib]EGTVVSFYSI[Aib]LDKQAQ[Aib]EFVKWLLKGGPSSGAPPPSK-NH2", "modifications": "N-terminus assumed", "SMILES": "CC[C@H](C)[C@H](NC(=O)[C@H](CO)NC(=O)[C@H](Cc1ccc(O)cc1)NC(=O)[C@H](Cc1ccccc1)NC(=O)[C@H](CO)NC(=O)[C@@H](NC(=O)[C@@H](NC(=O)[C@@H](NC(=O)CNC(=O)[C@H](CCC(=O)O)NC(=O)C(C)(C)NC(=O)[C@@H](N)Cc1ccc(O)cc1)[C@@H](C)O)C(C)C)C(C)C)C(=O)NC(C)(C)C(=O)N[C@@H](CC(C)C)C(=O)N[C@@H](CC(=O)O)C(=O)N[C@@H](CCCCN)C(=O)N[C@@H](CCC(N)=O)C(=O)N[C@@H](C)C(=O)N[C@@H](CCC(N)=O)C(=O)NC(C)(C)C(=O)N[C@@H](CCC(=O)O)C(=O)N[C@@H](Cc1ccccc1)C(=O)N[C@H](C(=O)N[C@@H](CCCCN)C(=O)N[C@@H](Cc1c[nH]c2ccccc12)C(=O)N[C@@H](CC(C)C)C(=O)N[C@@H](CC(C)C)C(=O)N[C@@H](CCCCN)C(=O)NCC(=O)NCC(=O)N1CCC[C@H]1C(=O)N[C@@H](CO)C(=O)N[C@@H](CO)C(=O)NCC(=O)N[C@@H](C)C(=O)N1CCC[C@H]1C(=O)N1CCC[C@H]1C(=O)N1CCC[C@H]1C(=O)N[C@@H](CO)C(=O)N[C@@H](CCCCN)C(N)=O)C(C)C"}, "B2": {"name": "Compound 59 (peptide)", "peptide": "[NMeY][Aib]EGTFISDYSIALDRIAQQDFVNWLLAQRPSSGAPPPSR-NH2", "modifications": "N-terminus assumed", "SMILES": "CC[C@H](C)[C@H](NC(=O)[C@H](CCCNC(=N)N)NC(=O)[C@H](CC(=O)O)NC(=O)[C@H](CC(C)C)NC(=O)[C@H](C)NC(=O)[C@@H](NC(=O)[C@H](CO)NC(=O)[C@H](Cc1ccc(O)cc1)NC(=O)[C@H](CC(=O)O)NC(=O)[C@H](CO)NC(=O)[C@@H](NC(=O)[C@H](Cc1ccccc1)NC(=O)[C@@H](NC(=O)CNC(=O)[C@H](CCC(=O)O)NC(=O)C(C)(C)NC(=O)[C@H](Cc1ccc(O)cc1)NC)[C@@H](C)O)[C@@H](C)CC)[C@@H](C)CC)C(=O)N[C@@H](C)C(=O)N[C@@H](CCC(N)=O)C(=O)N[C@@H](CCC(N)=O)C(=O)N[C@@H](CC(=O)O)C(=O)N[C@@H](Cc1ccccc1)C(=O)N[C@H](C(=O)N[C@@H](CC(N)=O)C(=O)N[C@@H](Cc1c[nH]c2ccccc12)C(=O)N[C@@H](CC(C)C)C(=O)N[C@@H](CC(C)C)C(=O)N[C@@H](C)C(=O)N[C@@H](CCC(N)=O)C(=O)N[C@@H](CCCNC(=N)N)C(=O)N1CCC[C@H]1C(=O)N[C@@H](CO)C(=O)N[C@@H](CO)C(=O)NCC(=O)N[C@@H](C)C(=O)N1CCC[C@H]1C(=O)N1CCC[C@H]1C(=O)N1CCC[C@H]1C(=O)N[C@@H](CO)C(=O)N[C@@H](CCCNC(=N)N)C(N)=O)C(C)C"}, "B3": {"name": "Compound 8 (peptide)", "peptide": "Y[Aib]EGTVKSDYSI[Aib]LDKQAQ[Aib]EFVKWLLKGGPSSGAPPPSK-NH2", "modifications": "N-terminus assumed", "SMILES": "CC[C@H](C)[C@H](NC(=O)[C@H](CO)NC(=O)[C@H](Cc1ccc(O)cc1)NC(=O)[C@H](CC(=O)O)NC(=O)[C@H](CO)NC(=O)[C@H](CCCCN)NC(=O)[C@@H](NC(=O)[C@@H](NC(=O)CNC(=O)[C@H](CCC(=O)O)NC(=O)C(C)(C)NC(=O)[C@@H](N)Cc1ccc(O)cc1)[C@@H](C)O)C(C)C)C(=O)NC(C)(C)C(=O)N[C@@H](CC(C)C)C(=O)N[C@@H](CC(=O)O)C(=O)N[C@@H](CCCCN)C(=O)N[C@@H](CCC(N)=O)C(=O)N[C@@H](C)C(=O)N[C@@H](CCC(N)=O)C(=O)NC(C)(C)C(=O)N[C@@H](CCC(=O)O)C(=O)N[C@@H](Cc1ccccc1)C(=O)N[C@H](C(=O)N[C@@H](CCCCN)C(=O)N[C@@H](Cc1c[nH]c2ccccc12)C(=O)N[C@@H](CC(C)C)C(=O)N[C@@H](CC(C)C)C(=O)N[C@@H](CCCCN)C(=O)NCC(=O)NCC(=O)N1CCC[C@H]1C(=O)N[C@@H](CO)C(=O)N[C@@H](CO)C(=O)NCC(=O)N[C@@H](C)C(=O)N1CCC[C@H]1C(=O)N1CCC[C@H]1C(=O)N1CCC[C@H]1C(=O)N[C@@H](CO)C(=O)N[C@@H](CCCCN)C(N)=O)C(C)C"}, "B4": {"name": "Compound 42 (peptide)", "peptide": "Y[Aib]EGTVVSLYSI[Aib]LDKQAQ[Aib]EFVKW[Aib]LKGGPSSGAPPPSK-NH2", "modifications": "N-terminus assumed", "SMILES": "CC[C@H](C)[C@H](NC(=O)[C@H](CO)NC(=O)[C@H](Cc1ccc(O)cc1)NC(=O)[C@H](CC(C)C)NC(=O)[C@H](CO)NC(=O)[C@@H](NC(=O)[C@@H](NC(=O)[C@@H](NC(=O)CNC(=O)[C@H](CCC(=O)O)NC(=O)C(C)(C)NC(=O)[C@@H](N)Cc1ccc(O)cc1)[C@@H](C)O)C(C)C)C(C)C)C(=O)NC(C)(C)C(=O)N[C@@H](CC(C)C)C(=O)N[C@@H](CC(=O)O)C(=O)N[C@@H](CCCCN)C(=O)N[C@@H](CCC(N)=O)C(=O)N[C@@H](C)C(=O)N[C@@H](CCC(N)=O)C(=O)NC(C)(C)C(=O)N[C@@H](CCC(=O)O)C(=O)N[C@@H](Cc1ccccc1)C(=O)N[C@H](C(=O)N[C@@H](CCCCN)C(=O)N[C@@H](Cc1c[nH]c2ccccc12)C(=O)NC(C)(C)C(=O)N[C@@H](CC(C)C)C(=O)N[C@@H](CCCCN)C(=O)NCC(=O)NCC(=O)N1CCC[C@H]1C(=O)N[C@@H](CO)C(=O)N[C@@H](CO)C(=O)NCC(=O)N[C@@H](C)C(=O)N1CCC[C@H]1C(=O)N1CCC[C@H]1C(=O)N1CCC[C@H]1C(=O)N[C@@H](CO)C(=O)N[C@@H](CCCCN)C(N)=O)C(C)C"}, "B5": {"name": "Compound 104 (peptide)", "peptide": "YXEGTXISDYSIALDRXAQXNFVNWLLAQRPSSGAPPPSR", "modifications": "N-methyl on Tyr 1 (Me-Tyr); Aib at 2, 17, 20; Iva at 6; C-terminal amide (NH2)"}, "B6": {"name": "Compound 113 (peptide)", "peptide": "B5 peptide with A13X, L26X", "modifications": "N-methyl on Tyr 1 (Me-Tyr); Aib at 2, 13, 17, 20; Iva at 6, 26; C-terminal amide (NH2)"}, "B7": {"name": "Compound 117 (peptide)", "peptide": "[NMeY][Aib]EGTFISDYSIALDR[Aib]HQ[Aib]NFVNW[Iva]LAQRPSSGAPPPSR-NH2", "modifications": "N-terminus assumed", "SMILES": "CC[C@H](C)[C@H](NC(=O)[C@H](CO)NC(=O)[C@H](Cc1ccc(O)cc1)NC(=O)[C@H](CC(=O)O)NC(=O)[C@H](CO)NC(=O)[C@@H](NC(=O)[C@H](Cc1ccccc1)NC(=O)[C@@H](NC(=O)CNC(=O)[C@H](CCC(=O)O)NC(=O)C(C)(C)NC(=O)[C@H](Cc1ccc(O)cc1)NC)[C@@H](C)O)[C@@H](C)CC)C(=O)N[C@@H](C)C(=O)N[C@@H](CC(C)C)C(=O)N[C@@H](CC(=O)O)C(=O)N[C@@H](CCCNC(=N)N)C(=O)NC(C)(C)C(=O)N[C@@H](Cc1c[nH]cn1)C(=O)N[C@@H](CCC(N)=O)C(=O)NC(C)(C)C(=O)N[C@@H](CC(N)=O)C(=O)N[C@@H](Cc1ccccc1)C(=O)N[C@H](C(=O)N[C@@H](CC(N)=O)C(=O)N[C@@H](Cc1c[nH]c2ccccc12)C(=O)N[C@@](C)(CC)C(=O)N[C@@H](CC(C)C)C(=O)N[C@@H](C)C(=O)N[C@@H](CCC(N)=O)C(=O)N[C@@H](CCCNC(=N)N)C(=O)N1CCC[C@H]1C(=O)N[C@@H](CO)C(=O)N[C@@H](CO)C(=O)NCC(=O)N[C@@H](C)C(=O)N1CCC[C@H]1C(=O)N1CCC[C@H]1C(=O)N1CCC[C@H]1C(=O)N[C@@H](CO)C(=O)N[C@@H](CCCNC(=N)N)C(N)=O)C(C)C"}, "B8": {"name": "Compound 326 (peptide)", "peptide": "Y[Aib]EGTVVSLYSK([PEG3′-PEG3′-γGlu-C20 diacid])[Aib]LDRQAQ[Aib]EFVK(Ac)WLLRGGPSSGAPPPS", "modifications": "ends and bridges not checked"}, "B9": {"name": "Compound 10 (peptide)", "peptide": "Y[Aib]EGTVKSDYSILLDKQAQ[Aib]EFVKWLLKGGPSSGAPPPSK-NH2", "modifications": "N-terminus assumed", "SMILES": "CC[C@H](C)[C@H](NC(=O)[C@H](CO)NC(=O)[C@H](Cc1ccc(O)cc1)NC(=O)[C@H](CC(=O)O)NC(=O)[C@H](CO)NC(=O)[C@H](CCCCN)NC(=O)[C@@H](NC(=O)[C@@H](NC(=O)CNC(=O)[C@H](CCC(=O)O)NC(=O)C(C)(C)NC(=O)[C@@H](N)Cc1ccc(O)cc1)[C@@H](C)O)C(C)C)C(=O)N[C@@H](CC(C)C)C(=O)N[C@@H](CC(C)C)C(=O)N[C@@H](CC(=O)O)C(=O)N[C@@H](CCCCN)C(=O)N[C@@H](CCC(N)=O)C(=O)N[C@@H](C)C(=O)N[C@@H](CCC(N)=O)C(=O)NC(C)(C)C(=O)N[C@@H](CCC(=O)O)C(=O)N[C@@H](Cc1ccccc1)C(=O)N[C@H](C(=O)N[C@@H](CCCCN)C(=O)N[C@@H](Cc1c[nH]c2ccccc12)C(=O)N[C@@H](CC(C)C)C(=O)N[C@@H](CC(C)C)C(=O)N[C@@H](CCCCN)C(=O)NCC(=O)NCC(=O)N1CCC[C@H]1C(=O)N[C@@H](CO)C(=O)N[C@@H](CO)C(=O)NCC(=O)N[C@@H](C)C(=O)N1CCC[C@H]1C(=O)N1CCC[C@H]1C(=O)N1CCC[C@H]1C(=O)N[C@@H](CO)C(=O)N[C@@H](CCCCN)C(N)=O)C(C)C"}, "B10": {"name": "Compound 324 (peptide)", "peptide": "Y[Aib]EGTVVSLYSK([PEG3′-PEG3′-C20 diacid])[Aib]LDRQAQ[Aib]EFVK(Ac)WLLRGGPSSGAPPPS", "modifications": "ends and bridges not checked"}}, "key": {"[1]": {"molecular_target": "human GLP-1R (human, UniProt P43220)", "assay": "cell-based or functional assay"}, "[2]": {"molecular_target": "T1, human GIPR (human), P48546", "T1 chain": "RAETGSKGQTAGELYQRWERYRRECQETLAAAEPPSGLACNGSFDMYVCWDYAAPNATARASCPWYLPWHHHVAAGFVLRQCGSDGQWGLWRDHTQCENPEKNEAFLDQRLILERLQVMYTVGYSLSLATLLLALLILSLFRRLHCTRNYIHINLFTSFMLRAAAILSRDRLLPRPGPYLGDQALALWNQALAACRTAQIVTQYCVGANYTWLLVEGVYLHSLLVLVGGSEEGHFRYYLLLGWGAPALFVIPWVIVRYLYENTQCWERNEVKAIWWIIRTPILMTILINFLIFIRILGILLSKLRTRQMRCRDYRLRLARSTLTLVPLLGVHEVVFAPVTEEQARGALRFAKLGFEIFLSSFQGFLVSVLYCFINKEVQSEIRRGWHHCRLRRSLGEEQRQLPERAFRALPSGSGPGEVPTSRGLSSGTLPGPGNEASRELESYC", "assay": "[125I]GIP competition, human GIPR VLP"}}, "note": "Residue numbers refer to the chain shown, from its start. Starred links: 1 amine or outer side, 2 acyl side, 3 side chain; linkers in the order of their positions; H or OH if unused. Non-standard residues stand in square brackets, D forms with d. Groups on a side chain read outwards from the residue. Primed or numbered codes have the meaning given here. No end group written: not given here. *: point of attachment. C20 diacid = O=C(O)CCCCCCCCCCCCCCCCCCC(=O)*; γGlu = O=C(O)[C@H](CCC(=O)[*:2])N[*:1]; NMeY = CN[C@@H](Cc1ccc(O)cc1)C(=O)O; Iva = CC[C@](C)(N)C(=O)O; PEG3′ = not defined here; Aib = CC(C)(N)C(=O)O"}
{"binder": "B1", "values": [{"measurement": "Agonist activity (EC50, M)", "setting": "[1]", "result": "> 1e-06", "unit": "M"}]}
{"binder": "B2", "values": [{"measurement": "Agonist activity (EC50, M)", "setting": "[1]", "result": "> 1e-06", "unit": "M"}]}
{"binder": "B3", "values": [{"measurement": "Agonist activity (EC50, M)", "setting": "[1]", "result": "> 1e-06", "unit": "M"}]}
{"binder": "B4", "values": [{"measurement": "Agonist activity (EC50, M)", "setting": "[1]", "result": "> 1e-06", "unit": "M"}]}
{"binder": "B5", "values": [{"measurement": "Agonist activity (EC50, M)", "setting": "[1]", "result": "> 1e-06", "unit": "M"}]}
{"binder": "B6", "values": [{"measurement": "Agonist activity (EC50, M)", "setting": "[1]", "result": "> 1e-06", "unit": "M"}]}
{"binder": "B7", "values": [{"measurement": "Agonist activity (EC50, M)", "setting": "[1]", "result": "> 1e-06", "unit": "M"}]}
{"binder": "B8", "values": [{"measurement": "IC50", "setting": "[2]", "result": 15, "unit": "nM"}]}
{"binder": "B9", "values": [{"measurement": "Agonist activity (EC50, M)", "setting": "[1]", "result": "> 1e-06", "unit": "M"}]}
{"binder": "B10", "values": [{"measurement": "IC50", "setting": "[2]", "result": 7.8, "unit": "nM"}]}
